From patent US20170260575A1
[ ]: non-standard residue; d: D form.

Molecular target: integrin receptors on NIH/3T3 fibroblast cells
Assay: cell-based or functional assay

decrease in Cy3B fluorescence under individual cells, Ttol=12 pN duplexes: 13.7%
decrease in Cy3B fluorescence under individual cells, Ttol=56 pN duplex: 6.5%
fold decrease in MCR signal of controls (duplexes lacking cRGDfK, scrambled duplexes) against the 12 pN cRGDfK surface: 150 fold
Binder: cyclo(RGD[dF]K) (also: biotin-labelled (cRGDfK-biotin), bound via streptavidin) [cyclic Arg-Gly-Asp-d-Phe-Lys (cRGDfK) peptide]
